pKd: −log10 of the molar value.
Columns and labels:
[1] = system: dRBD #3L (LwaCas13a with hnRNP A1 RRM2 98-196 inserted between N415 and N416, catalytically inactive HEPN2) R1046A/H1051A (LwaCas13a numbering) (Leptotrichia wadei / Homo sapiens); assay: EMSA
[2] = system: dRBD #4L (LwaCas13a with hnRNP C RRM 2-106 inserted between N415 and N416, catalytically inactive HEPN2) R1046A/H1051A (LwaCas13a numbering) (Leptotrichia wadei / Homo sapiens); assay: EMSA
[3] = system: RBD #3L LwaCas13a (Leptotrichia wadei / Homo sapiens); assay: cleavage_in_vitro; details: collateral cleavage of RNaseAlert
[4] = system: RBD #4L LwaCas13a (Leptotrichia wadei / Homo sapiens); assay: cleavage_in_vitro; details: collateral cleavage of RNaseAlert
[5] = system: RBD #2L LwaCas13a (hnRNP A1 1-104 in Loop 1) (Leptotrichia wadei / Homo sapiens); assay: cleavage_in_vitro; details: collateral cleavage of RNaseAlert
[6] = system: T1, RBD #6L LwaCas13a (ADAR1 126-202 in Loop 1) (Leptotrichia wadei / Homo sapiens); assay: cleavage_in_vitro; details: collateral cleavage of RNaseAlert
T1 sequence: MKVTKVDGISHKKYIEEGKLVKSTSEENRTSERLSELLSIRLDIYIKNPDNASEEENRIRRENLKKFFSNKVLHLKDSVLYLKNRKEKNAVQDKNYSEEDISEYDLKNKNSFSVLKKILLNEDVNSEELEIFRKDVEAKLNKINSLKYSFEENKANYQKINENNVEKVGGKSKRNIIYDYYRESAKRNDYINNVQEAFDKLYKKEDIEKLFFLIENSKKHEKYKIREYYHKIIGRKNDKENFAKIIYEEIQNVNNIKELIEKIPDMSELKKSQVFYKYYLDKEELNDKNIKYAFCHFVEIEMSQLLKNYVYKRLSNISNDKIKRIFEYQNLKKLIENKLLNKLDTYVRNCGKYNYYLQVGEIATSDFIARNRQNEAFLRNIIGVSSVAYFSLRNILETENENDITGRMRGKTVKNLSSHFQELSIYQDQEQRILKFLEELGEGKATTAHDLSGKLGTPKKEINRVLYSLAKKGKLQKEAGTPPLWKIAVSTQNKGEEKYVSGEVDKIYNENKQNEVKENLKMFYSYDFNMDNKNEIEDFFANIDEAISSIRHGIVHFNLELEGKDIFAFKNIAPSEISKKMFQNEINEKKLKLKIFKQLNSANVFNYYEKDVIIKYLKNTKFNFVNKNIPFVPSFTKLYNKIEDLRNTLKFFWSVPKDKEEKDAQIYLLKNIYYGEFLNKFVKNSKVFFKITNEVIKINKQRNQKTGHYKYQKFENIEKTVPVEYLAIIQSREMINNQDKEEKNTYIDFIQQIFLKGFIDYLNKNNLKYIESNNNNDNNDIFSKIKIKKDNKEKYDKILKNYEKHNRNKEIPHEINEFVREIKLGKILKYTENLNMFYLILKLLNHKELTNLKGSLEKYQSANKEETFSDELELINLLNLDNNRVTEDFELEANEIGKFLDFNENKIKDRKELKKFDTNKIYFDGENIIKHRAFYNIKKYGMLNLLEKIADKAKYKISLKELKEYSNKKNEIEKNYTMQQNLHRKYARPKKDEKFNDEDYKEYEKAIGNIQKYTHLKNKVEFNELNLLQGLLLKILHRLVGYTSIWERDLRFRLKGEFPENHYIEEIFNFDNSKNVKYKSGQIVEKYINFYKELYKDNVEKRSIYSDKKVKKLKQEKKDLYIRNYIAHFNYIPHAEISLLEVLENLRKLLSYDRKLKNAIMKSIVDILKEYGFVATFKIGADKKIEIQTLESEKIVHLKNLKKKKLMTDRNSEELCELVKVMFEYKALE

[7] = crRNA complex, 5 mM MgCl2, 37 C
[8] = collateral reporter binding by cr1/T1-bound complex, pH 7.5, 5 mM MgCl2, 0.01% Triton X-100
[9] = crRNA complex, 50 mM Tris pH 8.0, 60 mM NaCl, 5 mM MgCl2, 37 C

GACUACCCCAAAAACGAAGGGGACUAAAACAAUCUGAGGGUCCACCAAACGUAAUGCG / GUCUGAUAAUGGACCCCAAAAUCAGCGAAAUGCACCCCGCAUUACGUUUGGUGGACCCUCAGAUUCAACUGGCAGUAACCAGAAUGGAGAACGCAGUGGGGCGCG [cr1_N crRNA ; T1_N target (105 nt)]
pKd [1, 7]: 7.92
pKd [2, 7]: 7.96

UUUUUUUUUUUUUUUUUUUU [U20 reporter]
pKd [1, 8]: 6.64
pKd [2, 8]: 6.82

GACUACCCCAAAAACGAAGGGGACUAAAACAAUCUGAGGGUCCACCAAACGUAAUGCG / ACCCCGCAUUACGUUUGGUGGACCCUCAGAUUCAAC [cr1_N crRNA ; T26_N_2 target (36 nt)]
pKd [1, 9]: 7.64
pKd [2, 9]: 7.74

GACUACCCCAAAAACGAAGGGGACUAAAACUCACUCAAUACUUGAGCACACUCAUUAG / GUGAUAGAGCCAUGCCUAACAUGCUUAGAAUUAUGGCCUCACUUGUUCUUGCUCGCAAACAUACAACGUGUUGUAGCUUGUCACACCGUUUCUAUAGAUUAGCUAAUGAGUGUGCUCAAGUAUUGAGUGAAAUGGUCAUGUGUGGCGGUUCACUAUAUGUUAAACCAGGUGGAACCUCAUCAGGAGAUGCCACAACUGCUUAUGCUAAUAGUGUUUUUAACAUUUGU [cr2_RdRp crRNA ; T2_RdRp target]
binding signal (% higher than WT) [3]: 264
binding signal (% higher than WT) [4]: 241
binding signal (% higher than WT) [5]: 164
binding signal (% higher than WT) [6]: 171

— patent publication US20250019680
